According to the supplement of paper PMC5998384:

Key:
HeLa Kyoto [1] = assay: solubility in G1/S (NP-40 vs SDS abundance) (log2 ratio); higher = more soluble; conditions: cell cycle stage: G1/S
HeLa Kyoto [2] = assay: solubility change mitosis vs G1/S (difference of NP-40 vs SDS log2 ratios) (log2 ratio difference); higher = more soluble in mitosis
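For solubility change mitosis vs G1/S (difference of NP-40 vs SDS log2 ratios) in this document: synchronized HeLa Kyoto cells (double thymidine block for G1/S, nocodazole release for mitosis), protein amounts in NP-40 versus SDS lysates quantified by mass spectrometry, three biological replicates.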
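For solubility in G1/S (NP-40 vs SDS abundance) in this document: HeLa Kyoto cells arrested at G1/S by double thymidine block, proteins quantified by TMT10plex mass spectrometry in mild NP-40 versus SDS extracts, three biological replicates.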

Sequence | solubility in G1/S (log2) (HeLa Kyoto [1]) | solubility change mitosis (log2) (HeLa Kyoto [2])
MMVESASETIRSAPSGQNGVGSLSGQADGSSGGATGTTASGTGREVTTGADSNGEMSPAELLHFQQQQALQVARQFLLQQASGLSSPGNNDSKQSASAVQVPVSVAMMSPQMLTPQQMQQILSPPQLQALLQQQQALMLQQLQEYYKKQQEQLHLQLLTQQQAGKPQPKEALGNKQLAFQQQLLQMQQLQQQHLLNLQRQGLVSLQPNQASGPLQTLPQAAVCPTDLPQLWKGEGAPGQPAEDSVKQEGLDLTGTAATATSFAAPPKVSPPLSHHTLPNGQPTVLTSRRDSSSHEETPGSHPLYGHGECKWPGCETLCEDLGQFIKHLNTEHALDDRSTAQCRVQMQVVQQLEIQLAKESERLQAMMAHLHMRPSEPKPFSQPLNPVPGSSSFSKVTVSAADSFPDGLVHPPTSAAAPVTPLRPPGLGSASLHGGGPARRRSSDKFCSPISSELAQNHEFYKNADVRPPFTYASLIRQAILETPDRQLTLNEIYNWFTRMFAYFRRNTATWKNAVRHNLSLHKCFVRVENVKGAVWTVDEREYQKRRPPKMTGSPTLVKNMISGLSYGALNASYQAALAESSFPLLNSPGMLNPGSASSLLPLSHDDVGAPVEPLPSNGSSSPPRLSPPQYSHQVQVKEEPAEAEEDRQPGPPLGAPNPSASGPPEDRDLEEELPGEELS [FOXP4] | 0.393 | -0.162
MNMIWRNSISCLRLGKVPHRYQSGYHPVAPLGSRILTDPAKVFEHNMWDHMQWSKEEEAAARKKVKENSAVRVLLEEQVKYEREASKYWDTFYKIHKNKFFKDRNWLLREFPEILPVDQKPEEKARESSWDHVKTSATNRFSRMHCPTVPDEKNHYEKSSGSSEGQSKTESDFSNLDSEKHKKGPMETGLFPGSNATFRILEVGCGAGNSVFPILNTLENSPESFLYCCDFASGAVELVKSHSSYRATQCFAFVHDVCDDGLPYPFPDGILDVILLVFVLSSIHPDRTLFI [METTL8] | -0.312 | 0.054
MNPLTKVKLINELNEREVQLGVADKVSWHSEYKDSAWIFLGGLPYELTEGDIICVFSQYGEIVNINLVRDKKTGKSKGFCFLCYEDQRSTILAVDNFNGIKIKGRTIRVDHVSNYRAPKDSEEIDDVTRQLQEKGCGARTPSPSLSESSEDEKPTKKHKKDKKEKKKKKKEKEKADREVQAEQPSSSSPRRKTVKEKDDTGPKKHSSKNSERAQKSEPREGQKLPKSRTAYSGGAEDLERELKKEKPKHEHKSSSRREAREEKTRIRDRGRSSDAHSSWYNGRSEGRSYRSRSRSRDKSHRHKRARRSRERESSNPSDRWRH [RBMX2] | -1.17 | 0.59
MNQPQRMAPVGTDKELSDLLDFSMMFPLPVTNGKGRPASLAGAQFGGSGLEDRPSSGSWGSGDQSSSSFDPSRTFSEGTHFTESHSSLSSSTFLGPGLGGKSGERGAYASFGRDAGVGGLTQAGFLSGELALNSPGPLSPSGMKGTSQYYPSYSGSSRRRAADGSLDTQPKKVRKVPPGLPSSVYPPSSGEDYGRDATAYPSAKTPSSTYPAPFYVADGSLHPSAELWSPPGQAGFGPMLGGGSSPLPLPPGSGPVGSSGSSSTFGGLHQHERMGYQLHGAEVNGGLPSASSFSSAPGATYGGVSSHTPPVSGADSLLGSRGTTAGSSGDALGKALASIYSPDHSSNNFSSSPSTPVGSPQGLAGTSQWPRAGAPGALSPSYDGGLHGLQSKIEDHLDEAIHVLRSHAVGTAGDMHTLLPGHGALASGFTGPMSLGGRHAGLVGGSHPEDGLAGSTSLMHNHAALPSQPGTLPDLSRPPDSYSGLGRAGATAAASEIKREEKEDEENTSAADHSEEEKKELKAPRARTSPDEDEDDLLPPEQKAEREKERRVANNARERLRVRDINEAFKELGRMCQLHLNSEKPQTKLLILHQAVSVILNLEQQVRERNLNPKAACLKRREEEKVSGVVGDPQMVLSAPHPGLSEAHNPAGHM [TCF3] | 0.291 | -0.0342
MNRIRIHVLPTNRGRITPVPRSQEPLSCAFTHRPCSHPRLEGQEFCIKHILEDKNAPFKQCSYISTKNGKRCPNAAPKPEKKDGVSFCAEHVRRNALALHAQMKKTNPGPVGETLLCQLSSYAKTELGSQTPESSRSEASRILDEDSWSDGEQEPITVDQTWRGDPDSEADSIDSDQEDPLKHAGVYTAEEVALIMREKLIRLQSLYIDQFKRLQHLLKEKKRRYLHNRKVEHEALGSSLLTGPEGLLAKERENLKRLKCLRRYRQRYGVEALLHRQLKERRMLATDGAAQQAHTTRSSQRCLAFVDDVRCSNQSLPMTRHCLTHICQDTNQVLFKCCQGSEEVPCNKPVPVSLSEDPCCPLHFQLPPQMYKPEQVLSVPDDLEAGPMDLYLSAAELQPTESLPLEFSDDLDVVGDGMQCPPSPLLFDPSLTLEDHLVKEIAEDPVDILGQMQMAGDGCRSQGSRNSEKASAPLSQSGLATANGKPEPTSIS [KANSL2] | 0.453 | -0.0302
MNSRQAWRLFLSQGRGDRWVSRPRGHFSPALRREFFTTTTKEGYDRRPVDITPLEQRKLTFDTHALVQDLETHGFDKTQAETIVSALTALSNVSLDTIYKEMVTQAQQEITVQQLMAHLDAIRKDMVILEKSEFANLRAENEKMKIELDQVKQQLMHETSRIRADNKLDINLERSRVTDMFTDQEKQLMETTTEFTKKDTQTKSIISETSNKIDAEIASLKTLMESNKLETIRYLAASVFTCLAIALGFYRFWK [CCDC90B] | 0.144 | 0.249
MNSVGEACTDMKREYDQCFNRWFAEKFLKGDSSGDPCTDLFKRYQQCVQKAIKEKEIPIEGLEFMGHGKEKPENSS [TRIAP1] | -0.88 | 0.6
MNVTSIALRAETWLLAAWHVKVPPMWLEACINWIQEENNNVNLSQAQMNKQVFEQWLLTDLRDLEHPLLPDGILEIPKGELNGFYALQINSLVDVSQPAYSQIQKLRGKNTTNDLVTAEAQVTPKPWEAKPSRMLMLQLTDGIVQIQGMEYQPIPILHSDLPPGTKILIYGNISFRLGVLLLKPENVKVLGGEVDALLEEYAQEKVLARLIGEPDLVVSVIPNNSNENIPRVTDVLDPALGPSDEELLASLDENDELTANNDTSSERCFTTGSSSNTIPTRQSSFEPEFVISPRPKEEPSNLSIHVMDGELDDFSLEEALLLEETVQKEQMETKELQPLTFNRNADRSIERFSHNPNTTNNFSLTCKNGNNNWSEKNVSEQMTNEDKSFGCPSVRDQNRSIFSVHCNVPLAHDFTNKEKNLETDNKIKQTSSSDSHSLNNKILNREVVNYVQKRNSQISNENDCNLQSCSLRSSENSINLSIAMDLYSPPFVYLSVLMASKPKEVTTVKVKAFIVTLTGNLSSSGGIWSITAKVSDGTAYLDVDFVDEILTSLIGFSVPEMKQSKKDPLQYQKFLEGLQKCQRDLIDLCCLMTISFNPSLSKAMVLALQDVNMEHLENLKKRLNK [RMI1] | -0.0709 | 0.0277
MPAGGRAGSLKDPDVAELFFKDDPEKLFSDLREIGHGSFGAVYFARDVRNSEVVAIKKMSYSGKQSNEKWQDIIKEVRFLQKLRHPNTIQYRGCYLREHTAWLVMEYCLGSASDLLEVHKKPLQEVEIAAVTHGALQGLAYLHSHNMIHRDVKAGNILLSEPGLVKLGDFGSASIMAPANSFVGTPYWMAPEVILAMDEGQYDGKVDVWSLGITCIELAERKPPLFNMNAMSALYHIAQNESPVLQSGHWSEYFRNFVDSCLQKIPQDRPTSEVLLKHRFVLRERPPTVIMDLIQRTKDAVRELDNLQYRKMKKILFQEAPNGPGAEAPEEEEEAEPYMHRAGTLTSLESSHSVPSMSISASSQSSSVNSLADASDNEEEEEEEEEEEEEEEGPEAREMAMMQEGEHTVTSHSSIIHRLPGSDNLYDDPYQPEITPSPLQPPAAPAPTSTTSSARRRAYCRNRDHFATIRTASLVSRQIQEHEQDSALREQLSGYKRMRRQHQKQLLALESRLRGEREEHSARLQRELEAQRAGFGAEAEKLARRHQAIGEKEARAAQAEERKFQQHILGQQKKELAALLEAQKRTYKLRKEQLKEELQENPSTPKREKAEWLLRQKEQLQQCQAEEEAGLLRRQRQYFELQCRQYKRKMLLARHSLDQDLLREDLNKKQTQKDLECALLLRQHEATRELELRQLQAVQRTRAELTRLQHQTELGNQLEYNKRREQELRQKHAAQVRQQPKSLKVRAGQRPPGLPLPIPGALGPPNTGTPIEQQPCSPGQEAVLDQRMLGEEEEAVGERRILGKEGATLEPKQQRILGEESGAPSPSPQKHGSLVDEEVWGLPEEIEELRVPSLVPQERSIVGQEEAGTWSLWGKEDESLLDEEFELGWVQGPALTPVPEEEEEEEEGAPIGTPRDPGDGCPSPDIPPEPPPTHLRPCPASQLPGLLSHGLLAGLSFAVGSSSGLLPLLLLLLLPLLAAQGGGGLQAALLALEVGLVGLGASYLLLCTALHLPSSLFLLLAQGTALGAVLGLSWRRGLMGVPLGLGAAWLLAWPGLALPLVAMAAGGRWVRQQGPRVRRGISRLWLRVLLRLSPMAFRALQGCGAVGDRGLFALYPKTNKDGFRSRLPVPGPRRRNPRTTQHPLALLARVWVLCKGWNWRLARASQGLASHLPPWAIHTLASWGLLRGERPTRIPRLLPRSQRQLGPPASRQPLPGTLAGRRSRTRQSRALPPWR [TAOK2] | -0.239 | -0.0236
MPALLERPKLSNAMARALHRHIMMERERKRQEEEEVDKMMEQKMKEEQERRKKKEMEERMSLEETKEQILKLEEKLLALQEEKHQLFLQLKKVLHEEEKRRRKEQSDLTTLTSAAYQQSLTVHTGTHLLSMQGSPGGHNRPGTLMAADRAKQMFGPQVLTTRHYVGSAAAFAGTPEHGQFQGSPGGAYGTAQPPPHYGPTQPAYSPSQQLRAPSAFPAVQYLSQPQPQPYAVHGHFQPTQTGFLQPGGALSLQKQMEHANQQTGFSDSSSLRPMHPQALHPAPGLLASPQLPVQMQPAGKSGFAATSQPGPRLPFIQHSQNPRFYHK [GPS2] | 0.416 | -0.0529
MPAPAATYERVVYKNPSEYHYMKVCLEFQDCGVGLNAAQFKQLLISAVKDLFGEVDAALPLDILTYEEKTLSAILRICSSGLVKLWSSLTLLGSYKGKKCAFRVIQVSPFLLALSGNSRELVLD [RPP14] | -0.294 | 0.0872
MPCVQAQYSPSPPGSSYAAQTYSSEYTTEIMNPDYTKLTMDLGSTEITATATTSLPSISTFVEGYSSNYELKPSCVYQMQRPLIKVEEGRAPSYHHHHHHHHHHHHHHQQQHQQPSIPPASSPEDEVLPSTSMYFKQSPPSTPTTPAFPPQAGALWDEALPSAPGCIAPGPLLDPPMKAVPTVAGARFPLFHFKPSPPHPPAPSPAGGHHLGYDPTAAAALSLPLGAAAAAGSQAAALESHPYGLPLAKRAAPLAFPPLGLTPSPTASSLLGESPSLPSPPSRSSSSGEGTCAVCGDNAACQHYGVRTCEGCKGFFKRTVQKNAKYVCLANKNCPVDKRRRNRCQYCRFQKCLSVGMVKEVVRTDSLKGRRGRLPSKPKSPLQQEPSQPSPPSPPICMMNALVRALTDSTPRDLDYSRYCPTDQAAAGTDAEHVQQFYNLLTASIDVSRSWAEKIPGFTDLPKEDQTLLIESAFLELFVLRLSIRSNTAEDKFVFCNGLVLHRLQCLRGFGEWLDSIKDFSLNLQSLNLDIQALACLSALSMITERHGLKEPKRVEELCNKITSSLKDHQSKGQALEPTESKVLGALVELRKICTLGLQRIFYLKLEDLVSPPSIIDKLFLDTLPF [NR4A3] | -0.0603 | -0.0421
